Measured values reported in article PMC10984559.

Target: T1, Mtr4 ΔSLYL (Saccharomyces cerevisiae, UniProt P47047 1-1069, del1070-1073)
T1 sequence: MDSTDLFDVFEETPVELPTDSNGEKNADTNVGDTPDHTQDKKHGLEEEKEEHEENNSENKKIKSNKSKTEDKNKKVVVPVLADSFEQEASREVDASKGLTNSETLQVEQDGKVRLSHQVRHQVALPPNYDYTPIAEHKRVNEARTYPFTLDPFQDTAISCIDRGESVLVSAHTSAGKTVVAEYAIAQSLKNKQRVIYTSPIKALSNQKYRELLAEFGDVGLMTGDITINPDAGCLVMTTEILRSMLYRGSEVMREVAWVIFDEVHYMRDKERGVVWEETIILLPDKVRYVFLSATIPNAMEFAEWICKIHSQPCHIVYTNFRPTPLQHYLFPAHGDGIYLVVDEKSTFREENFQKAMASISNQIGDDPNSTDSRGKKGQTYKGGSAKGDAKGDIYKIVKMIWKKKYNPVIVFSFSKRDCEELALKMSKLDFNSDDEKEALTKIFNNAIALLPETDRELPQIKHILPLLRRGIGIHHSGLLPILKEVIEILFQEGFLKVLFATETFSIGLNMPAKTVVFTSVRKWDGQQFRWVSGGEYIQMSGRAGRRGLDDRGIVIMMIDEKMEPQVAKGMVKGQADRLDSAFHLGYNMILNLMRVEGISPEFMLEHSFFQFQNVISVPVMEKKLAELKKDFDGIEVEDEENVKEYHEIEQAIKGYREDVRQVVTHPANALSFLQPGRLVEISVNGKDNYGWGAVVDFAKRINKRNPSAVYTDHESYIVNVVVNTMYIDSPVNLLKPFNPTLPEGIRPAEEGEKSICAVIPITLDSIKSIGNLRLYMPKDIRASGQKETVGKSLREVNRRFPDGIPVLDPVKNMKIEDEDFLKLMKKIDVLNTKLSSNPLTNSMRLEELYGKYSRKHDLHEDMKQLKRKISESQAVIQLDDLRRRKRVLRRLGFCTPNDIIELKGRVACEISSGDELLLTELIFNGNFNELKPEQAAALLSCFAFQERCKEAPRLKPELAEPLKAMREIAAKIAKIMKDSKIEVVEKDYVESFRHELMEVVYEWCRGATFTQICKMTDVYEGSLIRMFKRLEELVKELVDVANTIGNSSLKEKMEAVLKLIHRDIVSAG
Assay: EMSA

B1: ds16UA5 (R16/R22A) (dsRNA)
RNA 1: AGCACCGUAAAGACGC
RNA 2: GCGUCUUUACGGUGCUUAAAAA
binding signal: > 5 fold Kd vs WT
